Laboratory results as given in article PMC9482650, “Quantitative fragmentomics allow affinity mapping of interactomes” (Nature Communications, 2022).

Experiments:
Experiment in all cases: holdup assay
Design in all cases: key: below the threshold = too weak to quantify, mostly under pKd 3.1 to 4
Conditions in all cases: plain residues with an end cap or a label only (N-terminal biotin on a linker: ado-ado)
TIAM2, Q8IVF5 = molecular target: T1, TIAM2, Q8IVF5
T1 sequence (Q8IVF5 885-986, limits assumed, looked up): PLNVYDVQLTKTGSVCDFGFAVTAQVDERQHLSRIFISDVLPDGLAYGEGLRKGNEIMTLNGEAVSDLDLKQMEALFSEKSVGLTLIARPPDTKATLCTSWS

NHERF3_1, Q5T2W1 = molecular target: T2, NHERF3_1, Q5T2W1
T2 sequence (Q5T2W1 4-100, limits assumed, looked up): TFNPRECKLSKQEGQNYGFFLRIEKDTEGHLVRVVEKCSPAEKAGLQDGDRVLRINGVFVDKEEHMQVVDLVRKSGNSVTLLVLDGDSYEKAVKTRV

GRIP2_3, Q9C0E4 = molecular target: GRIP2_3, Q9C0E4
FRMPD3, Q5JV73 = molecular target: FRMPD3, Q5JV73
LNX1_2, Q8TBB1 = molecular target: LNX1_2, Q8TBB1
APBA2_1, Q99767 = molecular target: T3, APBA2_1, Q99767
T3 sequence (Q99767 563-664, limits assumed, looked up): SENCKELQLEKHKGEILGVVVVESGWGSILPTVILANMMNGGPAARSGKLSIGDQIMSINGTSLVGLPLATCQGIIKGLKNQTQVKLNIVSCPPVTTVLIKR

MAGI1_1, Q96QZ7 = molecular target: MAGI1_1, Q96QZ7
HTRA2, O43464 = molecular target: HTRA2, O43464
PARD3B_1, Q8TEW8 = molecular target: T4, PARD3B_1, Q8TEW8
T4 sequence (Q8TEW8 196-299, limits assumed, looked up): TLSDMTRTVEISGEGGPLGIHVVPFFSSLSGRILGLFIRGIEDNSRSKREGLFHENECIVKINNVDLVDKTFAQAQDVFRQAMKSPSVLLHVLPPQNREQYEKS

MPDZ_10, O75970 = molecular target: T5, MPDZ_10, O75970
T5 sequence (O75970 1624-1722, limits assumed, looked up): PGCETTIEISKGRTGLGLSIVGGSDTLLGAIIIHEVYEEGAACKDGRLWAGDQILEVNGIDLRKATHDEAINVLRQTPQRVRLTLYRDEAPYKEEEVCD

PARD3_3, Q8TEW0 = molecular target: PARD3_3, Q8TEW0
Inadl_2, Q8NI35 = molecular target: Inadl_2, Q8NI35
DFNB31_1, Q9P202 = molecular target: T6, DFNB31_1, Q9P202
T6 sequence (Q9P202 135-233, limits assumed, looked up): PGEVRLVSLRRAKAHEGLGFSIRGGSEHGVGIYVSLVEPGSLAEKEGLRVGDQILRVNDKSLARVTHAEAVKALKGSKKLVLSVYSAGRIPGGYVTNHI

NHERF2_2, Q15599 = molecular target: NHERF2_2, Q15599
GRIP1_2, Q9Y3R0 = molecular target: T7, GRIP1_2, Q9Y3R0
T7 sequence (Q9Y3R0 145-248, limits assumed, looked up): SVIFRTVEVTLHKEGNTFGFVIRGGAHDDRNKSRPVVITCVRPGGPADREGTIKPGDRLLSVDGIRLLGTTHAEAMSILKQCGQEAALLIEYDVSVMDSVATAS

LAP2, Q96RT1 = molecular target: LAP2, Q96RT1
LNX1_1, Q8TBB1 = molecular target: LNX1_1, Q8TBB1
GRIP2_4, Q9C0E4 = molecular target: GRIP2_4, Q9C0E4
APBA2_2, Q99767 = molecular target: T8, APBA2_2, Q99767
T8 sequence (Q99767 654-744, limits assumed, looked up): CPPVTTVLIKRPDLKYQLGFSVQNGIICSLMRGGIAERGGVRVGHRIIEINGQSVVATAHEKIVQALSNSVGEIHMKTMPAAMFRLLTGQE

PTPN13_1, Q12923 = molecular target: T9, PTPN13_1, Q12923
T9 sequence (Q12923 1088-1188, limits assumed, looked up): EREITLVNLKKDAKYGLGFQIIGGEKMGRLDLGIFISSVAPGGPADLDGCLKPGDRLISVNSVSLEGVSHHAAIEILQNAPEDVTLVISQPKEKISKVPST

SNTG2, Q9NY99 = molecular target: T10, SNTG2, Q9NY99
T10 sequence (Q9NY99 68-166, limits assumed, looked up): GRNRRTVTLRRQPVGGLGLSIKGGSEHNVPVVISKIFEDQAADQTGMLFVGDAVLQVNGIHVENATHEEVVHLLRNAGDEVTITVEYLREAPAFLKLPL

DLG4_1, P78352 = molecular target: DLG4_1, P78352
GORASP1, Q9BQQ3 = molecular target: GORASP1, Q9BQQ3
FRMPD2_3, Q68DX3 = molecular target: FRMPD2_3, Q68DX3
PDZRN3_1, Q9UPQ7 = molecular target: T11, PDZRN3_1, Q9UPQ7
T11 sequence (Q9UPQ7 244-349, limits assumed, looked up): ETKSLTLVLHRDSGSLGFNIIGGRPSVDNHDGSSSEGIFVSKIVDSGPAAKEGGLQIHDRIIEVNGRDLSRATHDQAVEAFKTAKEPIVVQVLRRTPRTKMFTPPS

GRIP2_5, Q9C0E4 = molecular target: GRIP2_5, Q9C0E4
GRIP2_6, Q9C0E4 = molecular target: GRIP2_6, Q9C0E4
Sequence of GRIP2_6, Q9C0E4 (Q9C0E4 648-740): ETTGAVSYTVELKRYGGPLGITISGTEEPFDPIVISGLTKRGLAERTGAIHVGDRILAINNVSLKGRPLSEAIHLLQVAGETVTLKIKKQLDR

Sequence of LAP2, Q96RT1 (Q96RT1 other isoform, or with tags, fused parts or gaps): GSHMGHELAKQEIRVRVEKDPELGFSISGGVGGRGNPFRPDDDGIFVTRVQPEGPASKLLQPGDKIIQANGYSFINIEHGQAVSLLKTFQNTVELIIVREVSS
Sequence of PARD3_3, Q8TEW0 (Q8TEW0 582-685): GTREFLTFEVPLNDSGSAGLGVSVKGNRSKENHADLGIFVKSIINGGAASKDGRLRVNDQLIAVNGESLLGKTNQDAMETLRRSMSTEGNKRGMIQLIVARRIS
Sequence of Inadl_2, Q8NI35 (Q8NI35 238-335): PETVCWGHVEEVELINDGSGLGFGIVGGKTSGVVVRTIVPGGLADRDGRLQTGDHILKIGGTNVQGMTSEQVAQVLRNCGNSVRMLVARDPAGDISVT
Sequence of NHERF2_2, Q15599 (Q15599 142-238): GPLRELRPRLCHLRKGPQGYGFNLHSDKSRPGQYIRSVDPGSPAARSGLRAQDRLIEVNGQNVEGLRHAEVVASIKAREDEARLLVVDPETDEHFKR
Sequence of MAGI1_1, Q96QZ7 (Q96QZ7 1-106): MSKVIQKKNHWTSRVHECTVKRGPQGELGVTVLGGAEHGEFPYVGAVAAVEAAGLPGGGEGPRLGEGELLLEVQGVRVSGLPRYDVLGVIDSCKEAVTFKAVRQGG
Sequence of GRIP2_4, Q9C0E4 (Q9C0E4 446-548): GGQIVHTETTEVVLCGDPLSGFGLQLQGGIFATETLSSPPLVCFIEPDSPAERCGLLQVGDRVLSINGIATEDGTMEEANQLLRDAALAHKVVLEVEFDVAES
Sequence of FRMPD3, Q5JV73 (Q5JV73 12-100): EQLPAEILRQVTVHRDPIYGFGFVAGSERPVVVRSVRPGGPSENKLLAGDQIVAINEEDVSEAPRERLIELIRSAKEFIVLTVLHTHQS
Sequence of LNX1_2, Q8TBB1 (Q8TBB1 371-470): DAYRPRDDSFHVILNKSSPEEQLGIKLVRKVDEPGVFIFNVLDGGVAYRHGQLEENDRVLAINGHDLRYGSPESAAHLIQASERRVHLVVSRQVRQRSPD
Sequence of FRMPD2_3, Q68DX3 (Q68DX3 1073-1166): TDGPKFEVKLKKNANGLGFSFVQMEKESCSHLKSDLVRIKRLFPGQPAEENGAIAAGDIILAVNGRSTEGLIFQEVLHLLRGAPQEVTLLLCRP
Sequence of GRIP2_3, Q9C0E4 (Q9C0E4 238-339): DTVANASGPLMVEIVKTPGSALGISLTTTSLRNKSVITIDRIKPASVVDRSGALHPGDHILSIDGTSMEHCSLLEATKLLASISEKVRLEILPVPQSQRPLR
Sequence of GRIP2_5, Q9C0E4 (Q9C0E4 544-642): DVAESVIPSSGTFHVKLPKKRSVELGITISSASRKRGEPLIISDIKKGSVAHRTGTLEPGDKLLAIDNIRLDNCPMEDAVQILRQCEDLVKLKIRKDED
Sequence of HTRA2, O43464 (O43464 355-458): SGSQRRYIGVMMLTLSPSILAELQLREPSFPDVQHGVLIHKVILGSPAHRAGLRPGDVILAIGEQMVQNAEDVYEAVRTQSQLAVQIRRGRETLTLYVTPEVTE
Sequence of DLG4_1, P78352 (P78352 62-152): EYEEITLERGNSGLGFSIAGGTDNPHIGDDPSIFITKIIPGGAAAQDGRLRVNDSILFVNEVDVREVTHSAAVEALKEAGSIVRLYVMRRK
Sequence of LNX1_1, Q8TBB1 (Q8TBB1 261-371): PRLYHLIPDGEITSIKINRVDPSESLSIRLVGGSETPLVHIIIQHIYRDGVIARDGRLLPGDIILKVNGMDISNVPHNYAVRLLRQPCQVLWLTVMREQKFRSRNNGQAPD
Sequence of GORASP1, Q9BQQ3 (Q9BQQ3 1-208): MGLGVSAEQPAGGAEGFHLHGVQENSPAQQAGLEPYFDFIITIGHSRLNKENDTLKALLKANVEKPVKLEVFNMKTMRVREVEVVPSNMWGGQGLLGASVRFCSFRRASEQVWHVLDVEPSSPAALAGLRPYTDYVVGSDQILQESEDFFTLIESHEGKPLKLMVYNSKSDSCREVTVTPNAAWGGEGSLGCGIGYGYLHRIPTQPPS

Binder	pKd (TIAM2, Q8IVF5)	pKd (NHERF3_1, Q5T2W1)	pKd (GRIP2_3, Q9C0E4)	pKd (FRMPD3, Q5JV73)	pKd (LNX1_2, Q8TBB1)	pKd (APBA2_1, Q99767)	pKd (MAGI1_1, Q96QZ7)	pKd (HTRA2, O43464)	pKd (PARD3B_1, Q8TEW8)	pKd (MPDZ_10, O75970)	pKd (PARD3_3, Q8TEW0)	pKd (Inadl_2, Q8NI35)	pKd (DFNB31_1, Q9P202)	pKd (NHERF2_2, Q15599)	pKd (GRIP1_2, Q9Y3R0)	pKd (LAP2, Q96RT1)	pKd (LNX1_1, Q8TBB1)	pKd (GRIP2_4, Q9C0E4)	pKd (APBA2_2, Q99767)	pKd (PTPN13_1, Q12923)	also measured
RSPVATATSC [DUSP5, Q16690]	4.09	3.53	below the threshold	below the threshold	below the threshold	below the threshold	below the threshold	below the threshold	below the threshold	below the threshold	below the threshold	below the threshold	below the threshold	below the threshold	below the threshold	below the threshold	below the threshold	below the threshold	below the threshold	below the threshold	pKd (SNTG2, Q9NY99): below the threshold; pKd (DLG4_1, P78352): below the threshold; pKd (GORASP1, Q9BQQ3): below the threshold; pKd (FRMPD2_3, Q68DX3): below the threshold; pKd (PDZRN3_1, Q9UPQ7): below the threshold; pKd (GRIP2_5, Q9C0E4): below the threshold; pKd (GRIP2_6, Q9C0E4): below the threshold
PLPPEEESWV [GAS2L2, Q8NHY3]	4.17	4.86	below the threshold	3.72	3.94	below the threshold	below the threshold	3.96	3.95	below the threshold	4.75	4.17	4.46	4.62	3.8	5.73	below the threshold	below the threshold	below the threshold	below the threshold	pKd (SNTG2, Q9NY99): 4.24; pKd (DLG4_1, P78352): 4.03; pKd (GORASP1, Q9BQQ3): 4.22; pKd (FRMPD2_3, Q68DX3): 4.04; pKd (PDZRN3_1, Q9UPQ7): 3.52; pKd (GRIP2_5, Q9C0E4): below the threshold; pKd (GRIP2_6, Q9C0E4): below the threshold
STYCDYTIEI [FAM71C, Q8NEG0]	4.15	below the threshold	below the threshold	below the threshold	4.35	below the threshold	below the threshold	3.85	4.1	below the threshold	5.15	3.51	below the threshold	below the threshold	3.53	below the threshold	below the threshold	below the threshold	below the threshold	below the threshold	pKd (SNTG2, Q9NY99): below the threshold; pKd (DLG4_1, P78352): below the threshold; pKd (GORASP1, Q9BQQ3): 4.72; pKd (FRMPD2_3, Q68DX3): below the threshold; pKd (PDZRN3_1, Q9UPQ7): below the threshold; pKd (GRIP2_5, Q9C0E4): below the threshold; pKd (GRIP2_6, Q9C0E4): 4.14
MQILSKPEFI [NPSR1, Q6W5P4]	4.05	below the threshold	below the threshold	below the threshold	below the threshold	3.74	below the threshold	3.72	4.09	below the threshold	3.98	below the threshold	below the threshold	below the threshold	below the threshold	below the threshold	below the threshold	below the threshold	below the threshold	below the threshold	pKd (SNTG2, Q9NY99): below the threshold; pKd (DLG4_1, P78352): below the threshold; pKd (GORASP1, Q9BQQ3): 4.15; pKd (FRMPD2_3, Q68DX3): below the threshold; pKd (PDZRN3_1, Q9UPQ7): below the threshold; pKd (GRIP2_5, Q9C0E4): below the threshold; pKd (GRIP2_6, Q9C0E4): below the threshold
KIEDVEITLV [FCHSD2, O94868]	below the threshold	4.13	below the threshold	below the threshold	4.55	below the threshold	below the threshold	3.93	3.91	3.49	3.99	4.3	3.48	3.86	below the threshold	3.84	below the threshold	below the threshold	3.51	below the threshold	pKd (SNTG2, Q9NY99): 3.58; pKd (DLG4_1, P78352): 3.89; pKd (GORASP1, Q9BQQ3): 3.91; pKd (FRMPD2_3, Q68DX3): below the threshold; pKd (PDZRN3_1, Q9UPQ7): below the threshold; pKd (GRIP2_5, Q9C0E4): below the threshold; pKd (GRIP2_6, Q9C0E4): below the threshold
